Data as given in the supplement of paper PMC7877785.
± gives the uncertainty stated by the source.

Assay: self-splicing fitness, log relative to wild type (ln ratio); higher = more splicing; Tetrahymena group I intron in knt gene, E. coli kanamycin selection, DiMSum; sequences stand for … in CUCUCU…GGAGGGAAAAGUUAUCAGGCAUGCACCUGGUAGCUAGUCUUUAAACCAAUAGAUUGCAUCGGUUUAAAAGGCAAGACCGUCAAAUUGCGGGAAAGGGGUCAACAGCCGUUCAGUACCAAGUCUCAGGGGAAACUUUGAGAUGGCCUUGCAAAGGGUAUGGUAAUAAGCUGACGGACAUGGUCCUAACCACGCAGCCAAGUCCUAAGUCAACAGAUCUUCUGUUGAUAUGGAUGCAGUUCACAGACUAAAUGUCGGUCGGGGAAGAUGUAUUCUUCUCAUAAGAUAUAGUCGGACCUCUCCUUAAUGGGAGCUAGCGGAUGAAGUGAUGCAACACUGGAGCCGCUGGGAACUAAUUUGUAUGCGAAAGUAUAUUGAUUAGUUUUGGAGUACUCGUGGUCG
Procedure, shortened: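 Six replicate transformations of E. coli BL21(DE3) with a pET-22b(+) library were grown overnight at 37°C or 30°C. The library randomised all eight P1ex-region intron nucleotides, the intron lying in the knt kanamycin-resistance gene, and plates were LB agar with or without 25 μg/mL kanamycin plus 100 μg/mL carbenicillin, 50 μM IPTG and 0.2% rhamnose. Pooled colonies were amplicon-sequenced on an Illumina HiSeq 2500, and fitness is the DiMSum error-weighted combination of wild-type-normalised replicate fold changes, kanamycin versus none.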

Row | Sequence | self-splicing fitness (ln) (30 °C) | self-splicing fitness (ln) (37 °C)
1 | UUGAAGCAAUAUUACGCGAC | -2.19 ± 0.18 | -1.51 ± 0.29
2 | UUGAAGCAAUAUUACGCGAG | -0.254 ± 0.086 | 0.721 ± 0.12
3 | UUGAAGCAAUAUUACGCGCU | -1.72 ± 0.093 | -1 ± 0.13
4 | UUGAAGCAAUAUUACGCGGC | -1.63 ± 0.13 | -0.671 ± 0.19
5 | UUGAAGCAAUAUUACGCGUG | -0.176 ± 0.07 | -0.123 ± 0.099
6 | UUGAAGCAAUAUUACGGAAG | -1.12 ± 0.14 | -0.383 ± 0.2
7 | UUGAAGCAAUAUUACGGAUC | -0.951 ± 0.15 | -0.501 ± 0.18
8 | UUGAAGCAAUAUUACGGCCC | -3.04 ± 0.4 | -0.425 ± 0.2
9 | UUGAAGCAAUAUUACGGGAA | -0.195 ± 0.11 | -0.634 ± 0.15
10 | UUGAAGCAAUAUUACGGGCC |  | -2.14 ± 0.42
11 | UUGAAGCAAUAUUACGGUCG | 0.0283 ± 0.088 | 0.283 ± 0.1
12 | UUGAAGCAAUAUUACGGUGA | -0.275 ± 0.08 | -0.469 ± 0.09
13 | UUGAAGCAAUAUUACGGUUG | -0.894 ± 0.053 | -0.569 ± 0.07
14 | UUGAAGCAAUAUUACGUUCU | 0.25 ± 0.084 | -0.378 ± 0.1
15 | UUGAAGCAAUAUUACGUUGU | -2.87 ± 0.11 | -2.24 ± 0.16
16 | UUGCAGCAAUAUUACGACGU | -3.09 ± 0.29 | -1.11 ± 0.14
17 | UUGCAGCAAUAUUACGACUA | 0.37 ± 0.1 | 0.519 ± 0.12
18 | UUGCAGCAAUAUUACGACUU | -0.403 ± 0.1 | -0.588 ± 0.08
19 | UUGCAGCAAUAUUACGAGAU | -3.6 ± 0.34 | -2.64 ± 0.36
20 | UUGCAGCAAUAUUACGAUCU | -2.34 ± 0.22 | -1.78 ± 0.21

Row | Sequence | self-splicing fitness (ln) (30 °C) | self-splicing fitness (ln) (37 °C)
21 | UUGCAGCAAUAUUACGCAGA | -2.12 ± 0.11 | -1.95 ± 0.096
22 | UUGCAGCAAUAUUACGCAGU |  | -2.71 ± 0.39
23 | UUGCAGCAAUAUUACGCAUU | -1.92 ± 0.19 | -1.42 ± 0.18
24 | UUGCAGCAAUAUUACGCGAA | -0.925 ± 0.16 | -0.846 ± 0.14
25 | UUGCAGCAAUAUUACGCGGU | -3.63 ± 0.35 | 
26 | UUGCAGCAAUAUUACGCUAG | -2.94 ± 0.23 | -2.44 ± 0.24
27 | UUGCAGCAAUAUUACGGAAU | -2.83 ± 0.3 | 
28 | UUGCAGCAAUAUUACGGACU | -1.3 ± 0.18 | -1.7 ± 0.29
29 | UUGCAGCAAUAUUACGGAGG | -2.94 ± 0.16 | -2.73 ± 0.24
30 | UUGCAGCAAUAUUACGUACG | -0.368 ± 0.08 | 0.233 ± 0.1
31 | UUGCAGCAAUAUUACGUCAC |  | -1.35 ± 0.29
32 | UUGCAGCAAUAUUACGUCUG | -3.23 ± 0.16 | -2.32 ± 0.18
33 | UUGCAGCAAUAUUACGUGAA | -1.12 ± 0.069 | -0.162 ± 0.086
34 | UUGCAGCAAUAUUACGUGCA | -2.15 ± 0.13 | -1.27 ± 0.12
35 | UUGCAGCAAUAUUACGUUCG | -1.16 ± 0.049 | -0.636 ± 0.071
36 | UUGGAGCAAUAUUACGAAUG | -3.5 ± 0.2 | -2.31 ± 0.21
37 | UUGGAGCAAUAUUACGAAUU | -1.68 ± 0.31 | -0.925 ± 0.41
38 | UUGGAGCAAUAUUACGACAC |  | -2.36 ± 0.37
39 | UUGGAGCAAUAUUACGACGA | -0.765 ± 0.14 | 0.309 ± 0.21
